In patent publication US7998940B2, “Aptamers to von Willebrand factor and their use as thrombotic disease therapeutics” (Archemix Corp., priority 2004, dated 2011):

Tests used:
[1] = test system: rabbit vWF A1 domain (SEQ ID NO 6); test: 3-point dot blot screen, rabbit vWF A1 domain; assay type: binding; details: 3-point dot blot screen, 20 nM rabbit vWF A1 domain; ratio of fraction of aptamer bound with target protein to fraction bound without protein
Method in brief: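 Rabbit vWF A1 domain binding was screened by dot blot using three conditions: no target protein, human vWF, and rabbit vWF A1 domain at 100 nM (20 nM in the screen run twice). Radiolabeled aptamer bound to nitrocellulose was quantified, and results are expressed as the ratio of bound fraction with protein to bound fraction without protein.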

[2] = test system: full length human vWF; test: 3-point dot blot screen, full length human vWF; assay type: binding; details: 20 nM full length human vWF, ratio of fraction of aptamer bound with target protein to fraction bound without protein
Text: When a significant positive ratio of binding of DNA in the presence of human or rabbit vWF A1 domain versus in the absence of protein was seen, the pools were cloned using the TOPO TA cloning kit (Invitrogen Cat. #45-0641, Carlsbad, Calif.) according to the manufacturer's instructions. Round 7 and 11 pool templates were cloned and sequenced (218 total sequences), producing 146 unique clones within 12 sequence families of which sequences from six families show vWF target binding activity. All unique clones were assayed twice in a 3-point dot blot screen (no protein target control, 20 nM full length human vWF (Calbiochem Cat. #681300, La Jolla, Calif.), or 20 nM rabbit vWF A1 domain. The data is presented in the third and fourth columns of Table 17 below as the ratio of the fraction of the aptamer bound to the nitrocellulose in the presence of the target protein to the fraction of aptamer bound in the absence of the target protein.

Sequence of rabbit vWF A1 domain (SEQ ID NO 6) (as listed by the source): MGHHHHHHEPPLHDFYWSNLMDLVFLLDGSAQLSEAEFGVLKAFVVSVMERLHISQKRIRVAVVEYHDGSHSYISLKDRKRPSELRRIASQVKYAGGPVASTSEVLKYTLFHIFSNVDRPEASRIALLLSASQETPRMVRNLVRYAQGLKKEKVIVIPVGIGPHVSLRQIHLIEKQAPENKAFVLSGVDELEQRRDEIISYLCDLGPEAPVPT

| Molecule | Screen Rabbit/No Protein [1] | Screen- Human/No Protein [2] |
| --- | --- | --- |
| AMX236.F7: DNA SELEX 2 aptamer clone (nucleic acid, DNA, backbone not given here, DNA SELEX 2 aptamer clone) CTACCTACGATCTGACTAGCCCCCACTTATCGTGTACCTTATGATATGTCGAATACTCTTGCTTACTCTCATGTAGTTCC | 1.20 | 1.18 |
| AMX238.G4: DNA SELEX 2 aptamer clone (nucleic acid, DNA, backbone not given here, DNA SELEX 2 aptamer clone) DNA: CTACCTACGATCTGACTAGCTTGTCGCACTTTTGGTTGGTCTGGTTGGTTCTAAGTGCGCTTACTCTCATGTAGTTCC | 1.39 | 1.09 |
| AMX238.H9: DNA SELEX 2 aptamer clone (nucleic acid, DNA, backbone not given here, DNA SELEX 2 aptamer clone) DNA: CTACCTACGATCTGACTAGCTTGTCGCACTTTTGGTTGGTCTGGTTGGTTTTAAGTGCGCTTACTCTCATGTAGTTCC | 1.32 | 1.11 |
| AMX236.H1: DNA SELEX 2 aptamer clone (nucleic acid, DNA, backbone not given here, DNA SELEX 2 aptamer clone) CTACCTACGATCTGACTAGCCTCAGATTGACTCCGGCCGACTTGTTTTAATCTTCTGAGTGCTTACTCTCATGTAGTTCC | 1.14 | 1.10 |
| AMX237.C1: DNA SELEX 2 aptamer clone (nucleic acid, DNA, backbone not given here, DNA SELEX 2 aptamer clone) DNA: CTACCTACGATCTGACTAGCGGAATGAGGATGCTGGTGGATTGCTCAGGTCTGCTGGCTGCTTACTCTCATGTAGTTCC | 3.47 | 0.76 |
| AMX236.E2: DNA SELEX 2 aptamer clone (nucleic acid, DNA, backbone not given here, DNA SELEX 2 aptamer clone) CTACCTACGATCTGACTAGCGGAATGAGTATGCTGATGGATTGCTCAGGTCTGCTGGCTGCTTACTCTCATGTAGTTCC | 3.59 | 0.93 |
| AMX237.B12: DNA SELEX 2 aptamer clone (nucleic acid, DNA, backbone not given here, DNA SELEX 2 aptamer clone) DNA: CTACCTACGATCTGACTAGCGGAATGAGAATGCAGGTGGATTGCTCAGGTCTGCTGGCTGCTTACTCTCATGTAGTTCC | 4.67 | 1.13 |
| AMX236.C6: DNA SELEX 2 aptamer clone (nucleic acid, DNA, backbone not given here, DNA SELEX 2 aptamer clone) CTACCTACGATCTGACTAGCGGAATGAGAGTGCTGGTGGATTGCTCAGGTCTGCTGGCTGCTTACTCTCATGTAGTTCC | 5.77 | 1.06 |
| AMX238.F6: DNA SELEX 2 aptamer clone (nucleic acid, DNA, backbone not given here, DNA SELEX 2 aptamer clone) DNA: CTACCTACGATCTGACTAGCGGAATGAGTATGCTGGTGGATTGCTCAGGTCTGCTGGCTGCTTACTCTCATGTAGTTCC | 5.36 | 1.18 |
| AMX238.A11: DNA SELEX 2 aptamer clone (nucleic acid, DNA, backbone not given here, DNA SELEX 2 aptamer clone) DNA: CTACCTACGATCTGACTAGCGGAATGAGAGTGTTGGTGGATTGCTCAGGTCTGCTGGCTGCTTACTCTCATGTAGTTCC | 4.54 | 0.85 |
| AMX238.A6: DNA SELEX 2 aptamer clone (nucleic acid, DNA, backbone not given here, DNA SELEX 2 aptamer clone) DNA: CTACCTACGATCTGACTAGCGGAATGAGAATGCAGATGGATTGCTCAGGTCTGCTGGCTGCTTACTCTCATGTAGTTCC | 3.47 | 0.92 |
| AMX237.B1: DNA SELEX 2 aptamer clone (nucleic acid, DNA, backbone not given here, DNA SELEX 2 aptamer clone) CTACCTACGATCTGACTAGCTTGGTAGCGACACAGTGGAGCTGCGGTTTGGTCGACGTCAGCTTACTCTCATGTAGTTCC | 2.10 | 2.00 |
| AMX237.H5: DNA SELEX 2 aptamer clone (nucleic acid, DNA, backbone not given here, DNA SELEX 2 aptamer clone) DNA: CTACCTACGATCTGACTAGCTCCAGTGTTTCATTTAATAACCGTGCGGTGCCTCCGTGAGCTTACTCTCATGTAGTTCC | 1.61 | 1.63 |
| AMX238.A3: DNA SELEX 2 aptamer clone (nucleic acid, DNA, backbone not given here, DNA SELEX 2 aptamer clone) DNA: CTACCTACGATCTGACTAGCTCAAAGTATTACTTATTGGCAATAAGTCGTTTACTCTATAGCTTACTCTCATGTAGTTCC | 1.03 | 1.36 |
| AMX237.C4: DNA SELEX 2 aptamer clone (nucleic acid, DNA, backbone not given here, DNA SELEX 2 aptamer clone) DNA: CTACCTACGATCTGACTAGCTTTCAGTCTTCCACATTTATAGGGTTTGGCATTGGGTCTGGCTTACTCTCATGTAGTTCC | 1.31 | 0.97 |
| AMX237.F1: DNA SELEX 2 aptamer clone (nucleic acid, DNA, backbone not given here, DNA SELEX 2 aptamer clone) DNA: CTACCTACGATCTGACTAGCTTTCAGTCTTCCACGTTTATAGGGTTTGGCATTGGGTCTGGCTTACTCTCATGTAGTTCC | 1.22 | 0.98 |
| AMX237.G2: DNA SELEX 2 aptamer clone (nucleic acid, DNA, backbone not given here, DNA SELEX 2 aptamer clone) DNA: CTACCTACGATCTGACTAGCTTTCAGTCTTTCATATTTATAGGGTTTGGCATTGGGTCTGGCTTACTCTCATGTAGTTCC | 1.16 | 1.02 |
| AMX238.H11: DNA SELEX 2 aptamer clone (nucleic acid, DNA, backbone not given here, DNA SELEX 2 aptamer clone) DNA: CTACCTACGATCTGACTAGCTTTCAGTCTTTCACATTTATAGGGTTTGGCATTGGGTCTGGCTTACTCTCATGTAGTTCC | 1.14 | 0.98 |
| AMX237.F5: DNA SELEX 2 aptamer clone (nucleic acid, DNA, backbone not given here, DNA SELEX 2 aptamer clone) DNA: CTACCTACGATCTGACTAGCTTTTAGTCTTCCACATTTATAGGGTTTGGCATTGGGTCTGGCTTACTCTCATGTAGTTCC | 1.22 | 0.99 |
| AMX237.E5: DNA SELEX 2 aptamer clone (nucleic acid, DNA, backbone not given here, DNA SELEX 2 aptamer clone) DNA: CTACCTACGATCTGACTAGCTTTCAGTCTTCTACATTTATAGGGTTTGGCATTGGGTCTGGCTTACTCTCATGTAGTTCC | 1.15 | 0.97 |
| AMX238.A12: DNA SELEX 2 aptamer clone (nucleic acid, DNA, backbone not given here, DNA SELEX 2 aptamer clone) DNA: CTACCTACGATCTGACTAGCCAGTTCTGGGAAAAATTATTTTTTTATTTCGATCGTATATGCTTACTCTCATGTAGTTCC | 0.99 | 1.23 |
| AMX236.C9: DNA SELEX 2 aptamer clone (nucleic acid, DNA, backbone not given here, DNA SELEX 2 aptamer clone) CTACCTACGATCTGACTAGCCAGTTCTGGGAAAAATTATTTTTTTATTTCGATCGTATTTGCTTACTCTCATGTAGTTCC | 1.00 | 1.24 |
